Test results published in US20250197488A1 (MABWELL SHANGHAI BIOSCIENCE, published 2025).
Substitutions are numbered along the chain they refer to.

T1: human IL-11 (AAH12506.1, Pro22-Leu199) (human, UniProt P20809 22-199)
T1 construct: The range Pro22-Leu199 counts on AAH12506.1; The Octet runs say only 'human IL-11'; also called hIL-11
T1 chain: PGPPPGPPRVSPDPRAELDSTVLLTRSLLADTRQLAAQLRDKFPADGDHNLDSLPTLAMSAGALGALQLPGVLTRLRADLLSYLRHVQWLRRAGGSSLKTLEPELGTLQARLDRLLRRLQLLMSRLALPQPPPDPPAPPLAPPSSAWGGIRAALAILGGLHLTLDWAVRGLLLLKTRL

T2: IL-11 (Cat. 12225-HNCE, Sino Biological Inc.) (UniProt P20809 22-199, limits assumed)
T2 sequence (looked up): T1 chain with L154H

B1: hz18A10-VHm1 + hz18A10-VL (antibody, V domains shown)
VH: EVQLVQSGAEVKKPGASVKVSCKASGYTFTTYNMDWVRQAPGQGLEWMGTIYPGNGDTSYNQKFKGRVTMTRDTSTSTVYMELSSLRSEDTAVYYCARGDLHFLDYWGQGTLVTVSS
VL: DIQMTQSPSSLSASVGDRVTITCKASQSVSNDVAWYQQKPGKAPKLLIYSASNRYTGVPSRFSGSGSGTDFTFTISSLQPEDIATYYCQHDYSSPYTFGQGTKLEIK
notes: Constant regions not restated for this antibody
B2: hz18A10-VHm1 + hz18A10-VLm7 (antibody, V domains shown)
VH: B1 VH
VL: B1 VL with S30F, N31R
notes: as for B1
B3: hz18A10-VHm1 + hz18A10-VLm9 (antibody, V domains shown)
VH: B1 VH
VL: B1 VL with S30Y, N31S
notes: as for B1
B4: hz18A10-VHm1 + hz18A10-VLm11 (antibody, V domains shown)
VH: B1 VH
VL: B1 VL with S50R
notes: as for B1
B5: hz18A10-VHm1 + hz18A10-VLm14 (antibody, V domains shown)
VH: B1 VH
VL: B1 VL with S50R, N53R
notes: as for B1
B6: hz18A10-VHm1 + hz18A10-VLm15 (antibody, V domains shown)
VH: B1 VH
VL: B1 VL with S50R, N53S
notes: as for B1
B7: hz18A10-VHm2 + hz18A10-VL (antibody, V domains shown)
VH: B1 VH with F103Y
VL: B1 VL
notes: as for B1
B8: hz18A10-VHm2 + hz18A10-VLm9 (antibody, V domains shown)
VH: B1 VH with F103Y
VL: B1 VL with S30Y, N31S
notes: as for B1
B9: hz18A10-VHm2 + hz18A10-VLm11 (antibody, V domains shown)
VH: B1 VH with F103Y
VL: B1 VL with S50R
notes: as for B1
B10: hz18A10-VHm3 + hz18A10-VLm9 (antibody, V domains shown)
VH: B1 VH with N33D, H102Y, F103A
VL: B1 VL with S30Y, N31S
notes: as for B1
B11: hz18A10-VHm3 + hz18A10-VLm19 (antibody, V domains shown)
VH: B1 VH with N33D, H102Y, F103A
VL: B1 VL with S30Y, N31R
notes: as for B1
B12: hz18A10-VHm4 + hz18A10-VLm9 (antibody, V domains shown)
VH: B1 VH with M34I, H102Y, F103A
VL: B1 VL with S30Y, N31S
notes: as for B1
B13: hz18A10-VHm4 + hz18A10-VLm18 (antibody, V domains shown)
VH: B1 VH with M34I, H102Y, F103A
VL: B1 VL with S30Y, N31R, S50R, N53S
notes: as for B1

Target: T1, human IL-11 (AAH12506.1, Pro22-Leu199)
Assay: BLI (Octet), antibody captured, human IL-11 in solution
How it was run: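 On a Fortebio Octet QKe System, antibodies in HBS-EP+ buffer were captured on anti-mouse IgG Fc or anti-human Fc biosensors. Human IL-11 was flowed over at 300 nM in the same buffer, with a 300-second association followed by a 300-second dissociation. Blank-subtracted curves were fitted to a 1:1 Langmuir binding model to give kon, koff and Kd.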
For B1, the Kd was 2.17 nM, the koff was 0.00139 s⁻¹ and the kon was 640000 M⁻¹ s⁻¹.
For B2, the Kd was 2.4 nM, the koff was 0.0013 s⁻¹ and the kon was 544000 M⁻¹ s⁻¹.
In the case of B3, the Kd is reported as 2.01 nM, the koff is reported as 0.000963 s⁻¹ and the kon is reported as 479000 M⁻¹ s⁻¹.
For B4, the Kd was 0.825 nM, the koff was 0.000287 s⁻¹ and the kon was 348000 M⁻¹ s⁻¹.
B5 was tested, and the Kd was 1.03 nM, the koff was 0.000341 s⁻¹ and the kon was 330000 M⁻¹ s⁻¹.
In the case of B6, the Kd is reported as 0.585 nM, the koff is reported as 0.000265 s⁻¹ and the kon is reported as 453000 M⁻¹ s⁻¹.
B7 was tested, and the Kd was 2.29 nM, the koff was 0.00158 s⁻¹ and the kon was 692000 M⁻¹ s⁻¹.
B8 was tested, and the Kd was 2.33 nM, the koff was 0.000941 s⁻¹ and the kon was 404000 M⁻¹ s⁻¹.
Work on B9 yielded a Kd of 1.01 nM, a koff of 0.000317 s⁻¹ and a kon of 314000 M⁻¹ s⁻¹.
Work on B10 yielded a Kd of 0.0959 nM, a koff of 9.7e-05 s⁻¹ and a kon of 1.01e+06 M⁻¹ s⁻¹.
B11 was tested, and the Kd was 0.683 nM, the koff was 0.000652 s⁻¹ and the kon was 954000 M⁻¹ s⁻¹.
B12 showed a Kd of 0.488 nM, a koff of 0.000496 s⁻¹ and a kon of 1.02e+06 M⁻¹ s⁻¹.
B13 gave a Kd of 0.322 nM, a koff of 0.000266 s⁻¹ and a kon of 826000 M⁻¹ s⁻¹.

The binders below were run against T2, IL-11 (Cat. 12225-HNCE, Sino Biological …) (assay: cell-based or functional assay).
For B1, the “Blocking activity (IC50), STAT3-luc reporter” value (shortened to “Blocking activity (IC50)”) was 10.9 µg/mL.
For B2, the “Blocking activity (IC50)” value was 13.1 µg/mL.
With B3 the “Blocking activity (IC50)” value was 11.1 µg/mL.
B4 was tested, and the “Blocking activity (IC50)” value was 7.4 µg/mL.
For B5, the “Blocking activity (IC50)” value was 9.68 µg/mL.
In the case of B6, the “Blocking activity (IC50)” value is reported as 1.88 µg/mL.
For B7, the “Blocking activity (IC50)” value was 11.6 µg/mL.
B8 was tested, and the “Blocking activity (IC50)” value was 13.9 µg/mL.
For B9, the “Blocking activity (IC50)” value was 9.46 µg/mL.
B10 was tested, and the “Blocking activity (IC50)” value was 0.248 µg/mL.
With B11 the “Blocking activity (IC50)” value was 0.262 µg/mL.
For B12, the “Blocking activity (IC50)” value was 2.23 µg/mL.
B13 was tested, and the “Blocking activity (IC50)” value was 1.94 µg/mL.
